# Article PMC10907165, “Discovery and structural characterization of the D-box, a conserved TonB motif that couples an inner-membrane motor to outer-membrane transport” (The Journal of Biological Chemistry, 2024)
# Ends that are not written are not given here.
# B1: ExbD periplasmic domain (E. coli ExbD residues 59-141) (domain or fragment)
# chain: GRPEKPVYLSVKADNSMFIGNDPVTDETMITALNALTEGKKDTTIFFRADKTVDYETLMKVMDTLHQAGYLKIGLVGEETAKAK
# notes: single glycine residue left upstream of Arg-59 after proteolytic removal of the SUMO tag; ExbD, E. coli, periplasmic domain, residues 59-141 (begins at Arg-59); codon-optimised synthetic gene in pETHSUL; the methods and legends say 59-141; Two copies of this domain hold one D-box peptide in the crystals and by ITC; also called ExbD_(59-141); ExbD C-terminal periplasmic domain; source: E. coli …
# B2: D-box peptide (residues 43 to 54 of E. coli TonB) (peptide)
# peptide: QPISVTMVTPAD
# notes: TonB, E. coli, residues 43-54, holds the D-box motif; The description of the crystal structure numbers the peptide Gln-55 to Thr-63, that is 12 higher than the TonB numbers; also called TonB D-box peptide; source: synthetic peptide (VWR Scientific)
# B3: AF488-labeled D-box peptide (QPISVTMVTPADC) (peptide)
# peptide: QPISVTMVTPADC(AF488 maleimide)
# notes: TonB, E. coli, residues 43-54 (D-box peptide); cysteine added at the C-terminus for labelling with the maleimide dye; not a TonB residue; also called fluorescently labeled D-box peptide; fluorophore-labeled D-box peptide; source: synthetic peptide (Biomatik Corporation), labelled with AF488-maleimide, purified on a C18 column
# Columns and labels:
# [1] = biological target: the molecule itself; experiment: crystal structure; ExbD periplasmic domain mixed with the D-box peptide; crystals from ammonium sulfate; orthorhombic and tetragonal forms, about 1.4 A
# [2] = biological target: B1; experiment: ITC; D-box peptide (1 mM) injected into 100 uM ExbD protein at 288 K; 10 mM MES pH 5.3, 60 mM NaCl; two-state binding model; details: both partners purified
# [3] = biological target: B1; experiment: fluorescence polarisation; fluorescence anisotropy; 100 nM AF488-labeled peptide, ExbD protein varied; 40 mM Tris pH 8.0, 150 mM NaCl; room temperature; details: both partners purified
binder,measurement,setting,value
B1,binding result,[1],binds
B2,Kd,[2],19 ± 1 µM
same,stoichiometry N,[2],0.5 D-box peptide per ExbD
B3,Kd,[3],45 ± 9 µM
